In publication doi:10.1101/2022.08.26.505453 one finds stoichiometry N data, which are given here for one substance.

Where “and” joins values, the source holds several entries; their conditions need not be identical. Equal values may be shown once.

Test [1] has as its target MBP-Vpu fusion protein (His8 tag, maltose binding protein, 11-residue linker, full-length HIV-1 Vpu with Q36C) (HIV-1). The test is described as follows: SDS-PAGE and western blot.
The target is the same in test [2]. Briefly: SEC. (In gel filtration, larger molecules generally elute earlier.)
The target is the same in test [3]. The test is described as follows: SEC. This is another data set of the same source.
For test [4] the target is unchanged. Briefly: negative staining electron microscopy.
Test [5] shares this target. Briefly: SEC. The source holds these as a separate data set.

As for “MBP-Vpu fusion protein (His8 tag, maltose binding protein, 11-residue linker, full-length HIV-1 Vpu with Q36C)”, the stoichiometry N in test [1] is 2 and 5; in test [2] it was 5; in test [3], 5 and 4; in test [4], 5; in test [5], 5 and 4.

What is called stoichiometry N is a count of units in the complex or per binding partner.
